Drawing on patent US20250136673A1, this text covers Kd, koff and kon for one substance.

The target of this assay is recombinant human VEGF (R&D Systems, 293-VE-010) (human) (UniProt P15692). The assay is described as follows: Octet HTX biosensor kinetics; antibody at 10 ug/mL in 1x kinetics buffer; recombinant human VEGF 200 nM to 3.125 nM.
UniProt P15692, sequence (P15692 other isoform, or with tags, fused parts or gaps limits assumed): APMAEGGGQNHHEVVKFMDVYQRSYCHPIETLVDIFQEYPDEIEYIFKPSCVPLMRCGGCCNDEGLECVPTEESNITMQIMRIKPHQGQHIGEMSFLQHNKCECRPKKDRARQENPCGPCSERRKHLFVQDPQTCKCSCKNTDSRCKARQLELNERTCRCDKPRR

As to “mouse anti-human VEGF monoclonal antibody (anti-hVEGF MmAb; R&D Systems, MAB293-100)”, the Kd came to 0.229 nM, the koff worked out at 7.77e-05 s⁻¹ and the kon was found to be 340000 M⁻¹ s⁻¹.
